The values that follow come from a protein production outcome set (Wang et al. 2014).

This data set can be described thus: label from the status in PepcDB records.
As to “MEKILLERNWQDLEKLVLVSSKKAIRTLVNRIYIKDGLGFWRAVEALGVASALAEEQKKDSSVELVRRYFWSLNEESGGNAWNAAEAIGSIMASNPKECGHFNWMLANLLEDESLQEGTLWGLLNLSINAPEVVDPLVERVYPFLEARDVNQRGLAVWIFSLMKACPSAKERWEIEEELHKTLIQDQEMAEIYWEGEYYHFPVSELLGKEIVTFYAREYKQADFTWNISVASSQKGLCWVGLGTPEKEEGELRTWVQKRVPGSLVIPRALPNQKVMEQLEDYFSGIRQEFNLPLDPRGTDFQLKVWEELCRIPYGETRSYGEIAQNIGNPKGQRAVGLANNKNPIAIIIPCHRVVGKKGDLVGYASGLDHKVRLLNWEAAHRHQ”, the protein production entry was “failed”. In the case of “MNDLVESLIYEVNNMQQNFENVKSQQQDHDFYQTVKPYTEHIDSILNEIKLHREFIIEVPYMNSRKFELLIANIEQLSVECHFKRTSRKLFIEKLKSVQYDLQNILDGVTKEGTDG” it was “not failed”; in that of “NGQAITLASKHYGSVNSAADLKGMVLGIPFEYSVHALLLRDYLVSNAVDPIADLELRLLRPADMVAQLTVEGIDGFIGPGPFNERAISNGSGRIWLLTKQLWDKHPCCAVAMAKEWKAEHPTAAQGVLNALEEASAILSNPA”, “failed”; in that of “MDTAEIEADQRALQHASVEGTTETPGNAQSSTNDDVIKATVDQIVAQILSESAERKATEEGKTGKAADDVKNTPESGEDANKAAAKEPSGTPVAASSEATVPAPGSASSSNSPLPGTPPKYSNPHNLTIGARLEALSVEGNWLPARIVEVNETEQTLLVRFERNHKLKVSPSTSGSFQEWMAIKSERLRQRLSNRVLPVFELDEKCMARWSGPRKFPGTIRKLLGNDTYEVLFDDGYVKNVRAVHMNKMPKQLPPVQVAEEGASKSPTPVGTPVSSAPVAPKRASTGSLGGSSGSSGSKKSKCAPQRRDWPLLDMASLDIASLGLPEIPHDGEWTCHWVNDQPIGTEGFLIVGEHQKPTVIVQDWRLPPGWIKHMYQRSNVLGKWDVILVSPSGKRFRSKSDLKLFLESQNLVYNPDVYDFSIHRRRAKDINAYVYTHGYNPQPPPKPRPMDVSMNSTLDQSITSQHSLPSTPMPVKESQYMEAPVASLMPPAELMSPQTQPADETKPKIEAEILEASEGGTSQLMLADPHVVENGFAFIGGLKVKIQDNLYVCPREDCAKTYRKEDFLLIHIRHYHKEFAEHVSHCPKMQELAVKRTHPSSIDQVEAVPKNQIPNQQFFAKMHQQDLQQSRSFKRQSVSATATSSTPSDITPTKALLSPKMEPPSVSPTVESGIKQEDVSLDAGPTQSFNPSLSRSCKRARLSPSKRPSGSRKSNRQRSQRRPILSDNPAGHGLTEQDVEETRQSFNTPTPDTRIDSKKRRSGAATTPISSIDSPAMGDSVSTPSSNDQTDINAALAPPPAETLSKAPQYIKENGELIRIVRMRQEEIINCICEYGEEDGLMIQCELCLCWQHGACNGIVKEADVPDKYVCYICRNPQRGRDSMRFKHDQDWLFEGKLPVAAYHTANPQATKQFELLKRSHTLTGNLLDAKRSMHSLLVKINIARNRCHPKLYLWAKKWDEDNLDSTALTPVKRAKLEAPDLPNVPQPEAAIDPEECQYRLIEHIKVQQSLVLDRLNDIEAEMDELEKEDTLDDLKDADISTTKEALATFIKELETMKRLAKLNQVANMKQTLRDSATSK”, “failed”.
